± gives the uncertainty stated by the source.
B1: E3 ubiquitin-protein ligase Midline-1, residues 172 to 214; numbered along this chain, O15344 (parent)
chain: GLMCLEHEDEKVNMYCVTDDQLICALCKLVGRHRDHQVAALSE
B2: Steroid hormone receptor ERR2, residues 100 to 176; numbered along this chain, O95718 (parent)
chain: KRLCLVCGDIASGYHYGVASCEACKAFFKRTIQGNIEYSCPATNECEITKRRRKSCQACRFMKCLKVGMLKEGVRLD

Variants of: B1
Experiment: abundance fitness (aPCA) (normalised: wild type 0, dead -1); higher = more abundant; growth selection in yeast, the domain comes from the species named
Details: Homo sapiens

Variant	abundance fitness
S42L	-0.342 ± 0.082
S42E	0.119 ± 0.06
S42R	-0.127 ± 0.063
S42M	-0.262 ± 0.082
S42I	-0.446 ± 0.13
S42P	0.056 ± 0.087
S42N	0.142 ± 0.092
S42Y	-0.34 ± 0.085
S42D	0.209 ± 0.07
S42G	0.078 ± 0.057
S42C	0.012 ± 0.084
S42F	-0.656 ± 0.27
S42T	0.064 ± 0.075
S42H	0.089 ± 0.069
S42Q	-0.049 ± 0.094
S42A	-0.021 ± 0.051
E43A	-0.004 ± 0.064
E43P	-0.076 ± 0.1
E43R	-0.031 ± 0.058
E43K	0.091 ± 0.22
E43V	-0.534 ± 0.16
E43G	-0.045 ± 0.078
E43H	-0.197 ± 0.1
E43T	-0.221 ± 0.35
E43S	0.058 ± 0.1
E43W	-0.175 ± 0.15
E43D	-0.239 ± 0.2

Variant	abundance fitness
E43L	-0.241 ± 0.12
E43Q	-0.317 ± 0.12
A40T	0.035 ± 0.087
A40R	-0.019 ± 0.053
A40P	0.228 ± 0.089
A40Q	0.082 ± 0.095
A40S	0.065 ± 0.07
A40Y	-0.572 ± 0.26
A40V	-0.236 ± 0.06
A40W	-0.406 ± 0.064
L41G	0.051 ± 0.048
L41A	0.072 ± 0.052
L41Y	-0.467 ± 0.2
L41I	-0.082 ± 0.09
L41P	0.297 ± 0.061
L41W	0.001 ± 0.058
L41Q	0.136 ± 0.058
L41S	0.134 ± 0.057
L41M	0.069 ± 0.093
L41H	0.172 ± 0.075
L41N	-0.034 ± 0.099
L41V	-0.053 ± 0.054
L41T	0.12 ± 0.057
L41C	0.176 ± 0.09
L41F	-0.132 ± 0.1
L41K	0.161 ± 0.058

Variants of: B2
Experiment: as above
Details: Homo sapiens

Variant	abundance fitness
Y14L	0.04 ± 0.047
Y14F	0.063 ± 0.083
Y14K	0.03 ± 0.077
Y14P	-0.315 ± 0.12
Y14H	-0.034 ± 0.093
Y14Q	-0.145 ± 0.083
Y14V	0.136 ± 0.043
Y14G	-0.017 ± 0.051
Y14M	-0.276 ± 0.083
Y14R	-0.446 ± 0.075
Y14I	0.03 ± 0.091
Y14S	-0.111 ± 0.055
Y14A	0.163 ± 0.063
Y14C	0.068 ± 0.079
Y14N	-0.022 ± 0.11
Y14W	0.032 ± 0.062
Y14E	0.101 ± 0.066
R2Y	0.014 ± 0.11
R2Q	-0.367 ± 0.096
R2H	0.072 ± 0.11
R2K	-0.066 ± 0.074
R2S	-0.187 ± 0.066
R2L	-0.136 ± 0.056

Variant	abundance fitness
R2A	-0.226 ± 0.067
R2T	-0.263 ± 0.07
R2N	0.04 ± 0.1
R2G	-0.176 ± 0.058
R2D	0.125 ± 0.1
R2P	-0.502 ± 0.19
R2F	0.16 ± 0.13
R2V	-0.228 ± 0.066
R2W	-0.338 ± 0.082
R2C	-0.111 ± 0.11
R2E	-0.105 ± 0.071
R2M	-0.074 ± 0.067
S12Q	0.115 ± 0.068
S12W	-0.253 ± 0.083
S12I	-0.327 ± 0.14
S12A	0.031 ± 0.053
S12R	-0.026 ± 0.047
S12E	-0.02 ± 0.062
S12T	-0.138 ± 0.06
S12V	0.029 ± 0.051
S12D	0.022 ± 0.072
S12G	-0.023 ± 0.048
S12P	-0.161 ± 0.087

Variant	abundance fitness
S12M	-0.118 ± 0.063
S12C	0.155 ± 0.073
S12Y	-0.32 ± 0.12
S12L	-0.156 ± 0.053
S12H	0.082 ± 0.072
S12N	-0.019 ± 0.087
L5M	-0.139 ± 0.067
L5C	-0.375 ± 0.14
L5Y	-0.186 ± 0.12
L5P	-0.358 ± 0.085
L5Q	-0.094 ± 0.061
L5A	-0.192 ± 0.055
L5H	-0.351 ± 0.18
L5K	-0.143 ± 0.062
L5W	-0.332 ± 0.081
L5N	-0.246 ± 0.083
L5V	-0.424 ± 0.067
L5G	-0.341 ± 0.052
L5S	-0.233 ± 0.058
L5F	-0.133 ± 0.11
L5R	-0.197 ± 0.045
L5I	-0.333 ± 0.12
L5T	-0.031 ± 0.06

Variant	abundance fitness
D9Q	-0.143 ± 0.078
D9W	-0.301 ± 0.072
D9R	-0.508 ± 0.066
D9C	-0.829 ± 0.22
D9M	-0.216 ± 0.074
D9V	-0.43 ± 0.063
D9Y	-0.351 ± 0.11
D9S	-0.36 ± 0.069
D9N	-0.365 ± 0.14
D9H	-0.365 ± 0.19
D9F	-0.492 ± 0.14
D9G	-0.208 ± 0.045
D9L	-0.454 ± 0.067
D9I	-0.369 ± 0.15
D9P	-0.894 ± 0.25
C7V	-0.976 ± 0.12
C7G	-0.96 ± 0.11
C7P	-0.673 ± 0.14
C7H	-1 ± 0.28
C7D	-0.602 ± 0.12
C7W	-1.22 ± 0.28
C7Y	-0.993 ± 0.32
C7N	-0.635 ± 0.19

Variant	abundance fitness
C7E	-0.874 ± 0.13
C7R	-0.586 ± 0.069
C7F	-0.362 ± 0.12
C7A	-0.775 ± 0.11
C7I	-1.05 ± 0.25
C7Q	-0.918 ± 0.16
C7L	-1.17 ± 0.17
C7S	-0.726 ± 0.097
C7K	-1.19 ± 0.23
G13C	-0.947 ± 0.29
G13Q	-0.244 ± 0.2
G13R	-0.675 ± 0.14
G13M	-0.539 ± 0.19
G13N	-0.362 ± 0.21
G13T	-0.509 ± 0.17
G13W	-0.64 ± 0.31
G13D	-0.02 ± 0.092
G13S	-0.555 ± 0.12
G13K	-0.336 ± 0.23
G13Y	-0.867 ± 0.33
G13I	0.038 ± 0.17
G13F	-0.27 ± 0.16

From the Human Domainome abundance scans (Beltran et al. 2025)
